This is an account of results in the supplement of paper PMC12042874.

± gives the uncertainty stated by the source.

The series can be described thus: amyloid nucleation score (Sup35N fusion, yeast selection) (log enrichment); library NNK1; higher = more nucleation; inactive = no reads after selection. In outline:
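Peptides of 20 random codons, each fused to Sup35N, were expressed in psi-negative yeast. Cells were induced with 100 μM copper sulfate for 24 hours and grown 7 days at 30°C on medium lacking adenine and uracil, and plasmid inserts before and after selection were Illumina-sequenced. Nucleation scores are DiMSum log enrichments of output over input reads, centred on the mode score of non-aggregating sequences, and sequences under 100 input reads were excluded.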

Turning to LSLSLMLGDIPSTIMRGCFR, the amyloid nucleation score result was “inactive”.

With LYCNVISILACFVTTIRGRG, the amyloid nucleation score is 3.64 ± 0.16.

On to RYTFVITVYKIDDSSEMSWV, for which the amyloid nucleation score was determined as 0.82 ± 0.25.

The substance GDFLIPRARDQFYRFSGFND yielded an amyloid nucleation score of 0.863 ± 0.46.

Turning to WEYEAGNFDSVMMVLLLSCY, the amyloid nucleation score was 1.25 ± 0.61.

In turn, LFTIMTLDCNFRLSGLSLAI returned an amyloid nucleation score of 0.236 ± 0.21.

With MIMKYLSDVLTRIGHDIFFA, the amyloid nucleation score was -0.872 ± 1.4.

In the case of SWIRNRWHYTQ, the amyloid nucleation score is -0.141 ± 0.72.

For the substance VFYQLCDWYNFGF, the amyloid nucleation score amounted to 5.68 ± 0.1.

EHTSGVDFIVNNLSECFTLR: the amyloid nucleation score entry was “inactive”.

Consider FGLHCINLNWVEKWFDIDGP, for which the amyloid nucleation score is -0.245 ± 0.84.

Turning to SVPQLVPNHFRVSWANHS, the amyloid nucleation score was -0.05 ± 1.4.

The substance GVLILCVSAKSRSAAVKQLS gave an amyloid nucleation score of 0.755 ± 0.68.

AARVGVVVF came in with an amyloid nucleation score of 0.065 ± 0.41.

With LHDQCLAHGQWCNTWGK, the amyloid nucleation score is -0.022 ± 0.39.

LLCYCVAELLDNTRRAT had an amyloid nucleation score of 0.328 ± 0.57.

As for LCIWYICRT, the amyloid nucleation score was 3.2 ± 0.16.

Take RLDISSYSLFGINQVWA: the amyloid nucleation score worked out at 2.63 ± 0.17.

As for FHAWSVFFIVRCLTEVRGYL, the amyloid nucleation score is -0.081 ± 0.34.

YISDSLYGFDEVGRDWLRVA: the amyloid nucleation score was -0.025 ± 0.56.

WMAFWGWVLYYFSFHFTFNV: the amyloid nucleation score is 0.079 ± 0.48.

Consider EDSYFYFRIEGISTVKCMAR, for which the amyloid nucleation score was -0.427 ± 1.9.

With KWNFVHMDQKGKELNSLFSL, the amyloid nucleation score is -0.649 ± 0.54.

On to MIIRLVLVGSSYKNVPSAEG, for which the amyloid nucleation score amounted to 0.137 ± 0.49.

Regarding IVFRLS, the amyloid nucleation score turned out to be 0.185 ± 0.38.

Turning to SYMLVRDTLVLRCSACLLAG, the amyloid nucleation score entry was “inactive”.

As to LSFLLEASNHDWDGSLG, the amyloid nucleation score entry was “inactive”.

HVDDIWWTTFMYFPRCHLHV yielded an amyloid nucleation score of 0.858 ± 0.57.

As to NLDYDVESRVTEVWGVLSGC, the amyloid nucleation score is 1.92 ± 0.56.

As to CNELI, the amyloid nucleation score result is “inactive”.

For CGTIKLSPFWWSVEDHACWM, the amyloid nucleation score is 0.828 ± 0.57.

Consider VLLIPMTKAKMKMSIW, for which the amyloid nucleation score is 0.584 ± 0.34.

The substance FDQLEGLRCASSWKLLSSPG gave an amyloid nucleation score of 0.062 ± 0.8.

YMVLVDLRTGRIHGSAGEKR: the amyloid nucleation score is -0.174 ± 0.5.

For INNHKIDQTML, the amyloid nucleation score is -0.541 ± 0.84.

Regarding NLYYWYGTVSIWFYNRWFGV, the amyloid nucleation score was -0.021 ± 0.66.

With YNCYNF, the amyloid nucleation score was found to be 0.97 ± 0.69.

On to YYSFGRFKYTILL, for which the amyloid nucleation score was -0.242 ± 0.6.

Regarding DVLLPSLTEVAINFSSVTLK, the amyloid nucleation score was -0.242 ± 0.41.

Consider ILEYWSISKKPYMIVMGGRV, for which the amyloid nucleation score amounted to 0.15 ± 0.34.

RRGFVAHLFLVLTVVCNLNS yielded an amyloid nucleation score of 7.2 ± 0.071.

Regarding HLECFRLRLPFTNCDVYVRS, the amyloid nucleation score was determined as 0.845 ± 0.54.

On to MSFQY, for which the amyloid nucleation score was -2.11 ± 1.9.

Take RHVSPFNSS: the amyloid nucleation score was -0.222 ± 0.31.

Take DNKGYL: the amyloid nucleation score is -0.977 ± 1.

With MWWAHDGFRSCLRHISHADG, the amyloid nucleation score is 0.349 ± 0.91.

Consider FLWVTWYFSTVFYVNWALE, for which the amyloid nucleation score was determined as 0.505 ± 0.89.

As to FRFMVLGLVSLGIGV, the amyloid nucleation score was -0.59 ± 0.62.

Consider MLLPSYVEF, for which the amyloid nucleation score was determined as 1.46 ± 0.34.

Substance RLSSSIYAFSDIHCGMSEAQ displayed an amyloid nucleation score of 0.168 ± 0.26.

Turning to NGITLLGAVAFTVFLLYPRT, the amyloid nucleation score was -0.215 ± 0.41.

On to DSRGHGEPRRTWEW, for which the amyloid nucleation score was -0.006 ± 0.58.

VFSDTPALCIDGLKLFAMVR: the amyloid nucleation score is -0.182 ± 0.3.

Consider VPCMWRFTHVSKYEGKSRTL, for which the amyloid nucleation score is -0.452 ± 0.42.

Consider LSNYYHDGILVIMRSATNDH, for which the amyloid nucleation score amounted to 1.61 ± 0.41.

Take MIFPDQYYYSISPW: the amyloid nucleation score was -0.115 ± 0.28.

For GRFRARIHCSPQARVTFVAS, the amyloid nucleation score is -0.113 ± 0.71.

SVSMY returned an amyloid nucleation score of 0.068 ± 0.27.

As for YHVRVKYFPWNGTNVTVLDS, the amyloid nucleation score is -0.73 ± 0.32.

Consider GIPCT, for which the amyloid nucleation score stood at 0.38 ± 0.72.

For the substance SASWGRYGERLHCDQRYFII, the amyloid nucleation score result was “inactive”.

For the substance DNTIYDSMCFDAGNPDLCIH, the amyloid nucleation score was 0.439 ± 0.23.

Regarding IYACTYY, the amyloid nucleation score was found to be 0.184 ± 0.45.

VRVFTHSSVGREE: the amyloid nucleation score is -0.177 ± 0.25.

With IRLIKIPVKFKFVSTMCSGC, the amyloid nucleation score is -0.1 ± 0.93.

Regarding RYHRWFRVRSSENRWGIC, the amyloid nucleation score is -0.51 ± 0.93.

Take RDKMDDWFQRHMESGTRTRE: the amyloid nucleation score turned out to be 0.053 ± 0.23.

Substance GSTSCK registered an amyloid nucleation score of 0.79 ± 0.43.

Substance DVRRYSGLNRAMKLRWGSCA had an amyloid nucleation score of 0.193 ± 0.79.

Take RNFLIVLPSVYRGPFI: the amyloid nucleation score turned out to be 5.36 ± 0.064.

For the substance SSWYVITATFIKDCGMTARR, the amyloid nucleation score was 4.03 ± 0.082.

Take CDYVKRLDNLLGYPLWWGRW: the amyloid nucleation score was determined as 0.22 ± 0.34.

Consider LYKDGQGSKEAIVSRVDCMS, for which the amyloid nucleation score was determined as 0.892 ± 0.25.

The substance FIRFTICALTSKVDFI returned an amyloid nucleation score of 0.811 ± 0.74.

Consider ERVSRSVGPACAREETKGST, for which the amyloid nucleation score stood at 0.354 ± 0.77.

As to FSGHNC, the amyloid nucleation score came out at 0.299 ± 0.35.

Turning to GDFSGSDVHLSFLF, the amyloid nucleation score came to 0.541 ± 0.4.

Consider DGLRCIGCIGNTGDWNS, for which the amyloid nucleation score was determined as 6.86 ± 0.085.

In the case of RRSMGRGVLVKGRGSCREYV, the amyloid nucleation score was determined as 0.251 ± 0.81.

Take VAFWLLC: the amyloid nucleation score came out at 0.219 ± 0.38.

For MLKMTVYFHIMID, the amyloid nucleation score is -0.065 ± 1.1.

On to WHEWNSVEWVGRSWTTDFEW, for which the amyloid nucleation score result was “inactive”.

As for VATPSSCVDSQAKTRMTGTL, the amyloid nucleation score is -0.112 ± 0.44.

Regarding VVTQLLEFVSITSEGWSQHM, the amyloid nucleation score was determined as 2.57 ± 0.096.

For KKFVNFWVMSLYLNSDYSP, the amyloid nucleation score result is “inactive”.

In the case of STCNYLDSGGRDRCSFFNCD, the amyloid nucleation score was found to be 0.078 ± 0.47.

Take AVSLRWCTGINGADKSCAYQ: the amyloid nucleation score came out at 1.19 ± 0.43.

Consider KNVMVFVQDWIVVSCMRVEK, for which the amyloid nucleation score is 2.39 ± 0.14.

GGIRRHTHGI: the amyloid nucleation score is -0.746 ± 1.4.

In the case of LILCCPYNFNLVLMCCPKVG, the amyloid nucleation score was found to be 7.268 ± 0.049.

Consider VEVLWVEDGSQF, for which the amyloid nucleation score is -0.559 ± 0.31.

Take MPCHAFAKMFVQSEFSGSVC: the amyloid nucleation score stood at 0.498 ± 0.97.

For RAGCPDVGRRLSCSRSVLPR, the amyloid nucleation score is 0.789 ± 0.27.

SGAPLDAGFNIA had an amyloid nucleation score of 0.227 ± 0.49.

In the case of FFELYRVLCTNAFLWCKGYV, the amyloid nucleation score is -0.423 ± 0.44.

For ASCVGNINDCRPNIAFWVEE, the amyloid nucleation score stood at 0.984 ± 0.84.

VCTCTLVVDSTLCLGSVGTA: the amyloid nucleation score was determined as 2.04 ± 0.18.

On to FRNDGYLNSYMSRRVIIPSD, for which the amyloid nucleation score was -0.194 ± 0.23.

In the case of YEDLSNDYNSNRWIVYALSK, the amyloid nucleation score was -0.189 ± 0.24.

The substance GLNLNRFWRLGATFILYLQT yielded an amyloid nucleation score of 1.19 ± 0.54.

For the substance VPTYGFGLEIFKDFSMNR, the amyloid nucleation score was -0.926 ± 0.44.

Consider TGRMGLTNRSEEFLSFLADS, for which the amyloid nucleation score is -1.45 ± 0.89.

Regarding HRSCCNKRRRERNFSDWTGV, the amyloid nucleation score amounted to 0.542 ± 0.77.

For the substance ANSSLLEFHTYDWDLYSACL, the amyloid nucleation score was -1.06 ± 1.5.

Take PMNNIVFYGGYLISAFRVRL: the amyloid nucleation score is 6.46 ± 0.089.

With KLMLLLSNSMNQRSDYPRFQ, the amyloid nucleation score was -0.327 ± 0.44.

IWLKWCNSPLVRLSMGNSSF yielded an amyloid nucleation score of 0.206 ± 0.27.

As to CRTCRNQRMKDKSELSWLMS, the amyloid nucleation score was -0.589 ± 0.6.

Turning to GPFASVFCAYGRVGVM, the amyloid nucleation score stood at 0.354 ± 0.68.

In the case of FKRRKSFAHCRFAGVVRRWW, the amyloid nucleation score is -0.581 ± 1.2.

In the case of GDIFSVQQPSNHQLETLKYS, the amyloid nucleation score result is “inactive”.

Take TNRVTGSLWDEVWSDPGPEC: the amyloid nucleation score was -1.28 ± 0.8.

For PHAHDTWYGYA, the amyloid nucleation score was -1.13 ± 2.4.

Turning to RVLRVFLGDTLFYCQSGSGL, the amyloid nucleation score stood at 1.84 ± 0.22.

Take SFLDMGFEAVNFGVVPSIMR: the amyloid nucleation score amounted to 0.479 ± 0.48.

For the substance STDSLLRWIKPERDGYRFLW, the amyloid nucleation score was -0.479 ± 0.45.

For QSSLGNLTCANFWVTTTEVG, the amyloid nucleation score entry is “inactive”.

LVRRFLSWRIQSLDPIKK: the amyloid nucleation score was -0.425 ± 0.76.

CYNNSCDKWGWASM gave an amyloid nucleation score of 1.22 ± 0.53.

With IVSKFSYQFKSIGINFYFFR, the amyloid nucleation score was 4.18 ± 0.12.

Take LRMFFDSTTILKLYERSWNI: the amyloid nucleation score came out at 0.777 ± 1.2.

Turning to YLNACGSSVRTKVRCSRVIL, the amyloid nucleation score is -0.209 ± 0.91.

With TYDVMTLGENVKGLCISARC, the amyloid nucleation score is -0.412 ± 0.42.

Turning to FFCWTCSAINLYRLLGPPMF, the amyloid nucleation score amounted to 5.67 ± 0.064.

The substance QVTVRM came in with an amyloid nucleation score of 0.987 ± 0.24.

Take RCDLARVLLMGRWLGPNAVW: the amyloid nucleation score was -0.359 ± 0.67.

As for LWSYRDFRQVSTELN, the amyloid nucleation score was -1.15 ± 2.7.

The substance DRFRRTNAIGLVHMDSGKG gave an amyloid nucleation score of 0.907 ± 0.39.

The substance VRVEKNCNFWLFSIVSCLPH displayed an amyloid nucleation score of 8.49 ± 0.065.

In the case of WSSTRPCFLFQLRMAMLLCS, the amyloid nucleation score is 0.154 ± 0.59.

In turn, RGAASKDLLMV registered an amyloid nucleation score of 0.082 ± 0.86.

As to LLFLYSLNLSRHLY, the amyloid nucleation score was determined as 0.71 ± 1.1.

Turning to MQNCISLL, the amyloid nucleation score is -0.483 ± 0.4.

For the substance SEGIPPQFFRYTAGASNLDT, the amyloid nucleation score is 0.306 ± 0.64.

RNRYTFSIRLVQTDYCFLGM gave an amyloid nucleation score of 1.63 ± 0.19.

The substance NGINSVRKDLLFYNLQR returned an amyloid nucleation score of 0.107 ± 1.1.

Consider SYLMY, for which the amyloid nucleation score was -0.533 ± 0.9.

For the substance RFRSCSYLVNRSSMLAATDG, the amyloid nucleation score result was “inactive”.

SGIVLTG: the amyloid nucleation score is -1.06 ± 2.1.
